Source: the supplement of paper PMC9170038

System: MS2 coat protein
Test: apparent KD of MS2 coat protein; designed switch direction (-1 OFF switch, 1 ON switch): 1; higher = weaker reporter binding
In short: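 Stalled E. coli RNA polymerase transcribed designed RNA switches on Illumina chips, which were then titrated with SNAP-549-labelled MS2 coat protein, doubling from 0.7 or 1.5 nM to 3 µM. Steps lasted from 0.8–1.5 h at the lowest concentration to 10–20 min at the highest. The apparent KD is each design's median over clusters of curve-fitted normalised fluorescence.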

[1] = input ligand: microRNA oligo, concentration not stated
[2] = Eterna round: R95, input ligand: FMN 200 uM
[3] = Eterna round: R95, input ligand: microRNA oligo, concentration not stated
[4] = Eterna round: R95, input ligand: none

Row | Sequence | apparent KD of MS2 coat protein (input ligand: FMN 200 uM) | apparent KD of MS2 coat protein [1] | apparent KD of MS2 coat protein (input ligand: none) | apparent KD of MS2 coat protein [2] | apparent KD of MS2 coat protein [3] | apparent KD of MS2 coat protein [4]
1 | AACAGUCGGCGAGGAUAUGGACGUACGGACUAACCCGCGCGGCUCACAUGAGGAUCACCCAUGUUCUAGAAGGCGCCACUGAAA [Xeorendi] (Eterna round: R96, puzzle: Same State NG 2) | 13.8 nM | 45.3 nM | 50.9 nM | – | – | –
2 | AACCAGAGAAAACAACUCUGACAUGAGGAUCACCCAUGUACACAGGAUAUCAGCCCGAAAAGGGCUGAGAAGGGUGGCCGAGUG [Beveat] (Eterna round: R96, puzzle: Same State NG 3) | 574 nM | 29.2 nM | 33.9 nM | – | – | –
3 | AACGGUCGACAAGGAUAUGGACGGACAGGUUUGCCUGUGCGGCUCACAUGAGGAUCACCCAUGUUCUAGAAGGUGUCACCAAGA [Tiinor] (Eterna round: R96, puzzle: Same State NG 2) | 36.9 nM | 141 nM | 259 nM | – | – | –
4 | AACGUGUAGGAAGGAUAUAUUGUUCAAGGGAUUGCAAUCUCUAACAUGAGGAUCACCCAUGUAGAGUAGAAGGUCCACCGCAGG [Eternabot solution 40] (Eterna round: R96, puzzle: Same State NG 2) | 14.1 nM | 13.5 nM | 19.2 nM | – | – | –
5 | AAGUAACAUGAGGAUCACCCAUGUGAGGUGAGCGUAGGAUAUCGAGGAGGAAGGGUAGGUCGAGAAGGACGAGAAG [JR_SS1_Sub096] (puzzle: Same State 1) | – | – | – | 127 nM | 162 nM | 247 nM
6 | AAGUUAAGCUUUUUGUUCUGCCUAUUCUAACAUGAGGAUCACCCAUGUAGUCAGACGACUGCGUGUGUAGUUGAGAU [JR_SHM208A_Sub029] (puzzle: Sensor for hsa-mir-208a) | – | – | – | 121 nM | 194 nM | 111 nM
7 | AAUAACAAUUUAGGAUAUCGACAGCGAAACUCACGAGAAGGAGAUAAGAGGCUGGCCUCGCGCACAUGAGGAUCACCCAUGUCG [Eternabot solution 25] (Eterna round: R96, puzzle: Same State NG 1) | 38.1 nM | 29.8 nM | 41.1 nM | – | – | –
8 | AAUCAACGCCGAGGAUAUCGGCCUACAUGAGGAUCACCCAUGUUGGGACAUAAAUUAAUCUCGGCUGAGAAGGCGGGAGUUGAC [Eternabot solution 38] (Eterna round: R96, puzzle: Same State NG 2) | 23 nM | 13.3 nM | 19.9 nM | – | – | –
9 | AAUUAAGAUCAAGGAUAUCACGUCGAUUAGACGUGAGAAGGUGAUCAUAACAUGAGGAUCACCCAUGUAUUACAUGAAUUAAUU [SSNG1/2-B2] (Eterna round: R96, puzzle: Same State NG 1) | 85.7 nM | 330 nM | 397 nM | – | – | –
10 | AAUUUAAUACAUGAGGAUCACCCAUGUAAUACUUGUAAGAUCAAGGAUAUCAGCUCGAAUAGAGCUGAGAAGGUGAUCACAUGU [SSNG3/19-D1] (Eterna round: R96, puzzle: Same State NG 3) | – | 24.9 nM | – | – | – | –
11 | ACAAGCUUUUUAGGAAGUGAAGGGAGGGAACAUGAGGAUCACCCAUGUAAGUGGAAUGAAGAAGGAGCACGUCUUAU [JR_SHM208A_Sub097] (puzzle: Sensor for hsa-mir-208a) | – | – | – | 32.7 nM | 26.6 nM | 43.1 nM
12 | ACAUGACAUGAGGAUCACCCAUGUCGAUAAAAGCAAGGAUAUGGGCCCGAGUCGUUCGGACCAGAAGGUGCGUCUC [Orso] (Eterna round: R96, puzzle: Same State 1) | 18.3 nM | 16.3 nM | 23.8 nM | – | – | –
13 | ACAUGAGACAGAGGAUAUGUUGUACCUACAUGUGACAUGAGGAUCACCCAUGUGGUAAGUAUGAUACAGAAGGCUGAGAUAUGU [Equivalance 64 - Jieux - Same State NG 2] (Eterna round: R96, puzzle: Same State NG 2) | 15 nM | 18.3 nM | 24.2 nM | – | – | –
14 | ACAUGAGAUUGAGGAUAUAUUGUACCUACAUGUGACAUGAGGAUCACCCAUGUGGUAAGUAUGACAUAGAAGGCAAAGAUAUGU [Equivalance 81 - Jieux - Same State NG 2] (Eterna round: R96, puzzle: Same State NG 2) | 87.1 nM | 54.1 nM | 74.4 nM | – | – | –
15 | ACAUGAGGAUCACCCAUGUGAAAAGACCUAGAGGUGAAGCCGCAGGAUAUAUCACAAACGAGAAGAUAGAAGGGCGUACGCAUG [Eternabot solution 9] (Eterna round: R96, puzzle: Same State NG 3) | 89.7 nM | 60.5 nM | 72.1 nM | – | – | –
16 | ACAUUUAGCUCGUGCACAUGAGGAUCACCCAUGUUCAGUUCACAGGAUAUCUAGUCAAACGGAUCGGAGAAGGGUGGCAGGAGC [Quceon] (Eterna round: R96, puzzle: Same State NG 3) | 39.9 nM | 121 nM | 123 nM | – | – | –

Row | Sequence | apparent KD of MS2 coat protein (input ligand: FMN 200 uM) | apparent KD of MS2 coat protein [1] | apparent KD of MS2 coat protein (input ligand: none) | apparent KD of MS2 coat protein [2] | apparent KD of MS2 coat protein [3] | apparent KD of MS2 coat protein [4]
17 | ACGCAAAAUGGAGGAUAUGGAGCCUUAUUGGCUCCAGAAGGUCAAAACAUGAGGAUCACCCAUGUGCGGUGGUCUAAUGACCAC [Eli NG1ss - 46] (Eterna round: R96, puzzle: Same State NG 1) | 41.5 nM | 109 nM | 172 nM | – | – | –
18 | ACGCAGCUGGGUGAGGAUAUCGGUGGUAAAACAUGAGGAUCACCCAUGUCCGAAGCUCGGACUUCCGAGAAGGCGCCCGGCCGCA [Atbeatve] (puzzle: Same State 2) | – | – | – | 14.6 nM | 65.2 nM | 83.1 nM
19 | ACGUGGGUAUCACAGGAUAUACUCAUAACUACAUGAGGAUCACCCAUGUAGCGGUAUUCCGGUGCGUAGAAGGGUGAUGGACCAC [Same State 2 - Mod of Artece] (puzzle: Same State 2) | – | – | – | 13.3 nM | 11.6 nM | 19.9 nM
20 | ACUAUUAAUGCAGGAUAUGAUUAACAUGAGGAUCACCCAUGUGGUGUUGUGAGUAAGGAGAGUGAUCAGAAGGGCAUUUUUUUU [JMF's solution 37] (Eterna round: R96, puzzle: Same State NG 2) | 992 nM | 466 nM | 629 nM | – | – | –
21 | ACUUAGUACAAUUUAGAUCUACAUGAGGAUCACCCAUGUACUGAGGAUAUCAGCUCGUUUAGAGCUGAGAAGGCAGUAGUACUA [SSNG3/9-A3] (Eterna round: R96, puzzle: Same State NG 3) | 46.7 nM | 26.2 nM | 61.9 nM | – | – | –
22 | ACUUGCUUUUUGCUCGUAUAUUGUCCGUUACAUGAGGAUCACCCAUGUGUAUAUUAUGUGUUGUUUUUGAUACGUGU [JR_SHM208A_Sub069] (puzzle: Sensor for hsa-mir-208a) | – | – | – | 36.2 nM | 33.9 nM | 43.7 nM
23 | AGAAAACAUGAGGAUCACCCAUGUAGAAAUAUGGGAGGAUAUACAAAGACGAAAGUCAGAGUAGAAGGCCUAAAAA [salish99-SS1-085] (Eterna round: R96, puzzle: Same State 1) | – | 46.6 nM | – | – | – | –
24 | AGAAAAGUUUACGAGGAUAUGUUCCGCAUAACAUGAGGAUCACCCAUGUGAACAAGAAAGGCGACGCAGAAGGCGUGAGCAAAAG [Mat - Same State 2 - Mod of UCT - D98] (puzzle: Same State 2) | – | – | – | 38.8 nM | 82.1 nM | 116 nM
25 | AGACACAUGAGGAUCACCCAUGUUACGAGCUUAGCUCGGACACAGGAUAUCCGGUCCUAGAGACCGGAGAAGGGUGCCUGAUAA [Zara MOD3] (Eterna round: R96, puzzle: Same State NG 3) | 568 nM | 678 nM | 765 nM | – | – | –
26 | AGACAUGAGGAUCACCCAUGUAUACACUGUAUCAGUGUAACAUAGGAUAUCCACCGCCAUGCUGUGGAGAAGGAUGAAACGGGC [Matearen] (Eterna round: R96, puzzle: Same State NG 3) | 175 nM | 111 nM | 99.5 nM | – | – | –
27 | AGAGAGGAAGCUGAGGAUAUCGUAAGGAGGACAUGAGGAUCACCCAUGUGUGUGGAAUUGGAGGACGAGAAGGCAGAGGAGUGGG [JR_SS2_Sub055] (puzzle: Same State 2) | – | – | – | 33 nM | 35.2 nM | 34.6 nM
28 | AGAGCCGGCACUGAGGAUAUUCAUAUUAAAACAUGAGGAUCACCCAUGUAGGCCAGAAGGCCUUGGGAGAAGGCAGGUCGGCUCA [Mat - Same State 2 - Mod of UCT - D58] (puzzle: Same State 2) | – | – | – | 25.2 nM | 212 nM | 484 nM
29 | AGAUCAUGACGAGGAUAUGGUACAUGAGGAUCACCCAUGUAUGUACCACGACGGAAACGUCGAAUCCAGAAGGCGUCGUGGUCA [Mat - Same State NG 2 - JL mod - D22] (Eterna round: R96, puzzle: Same State NG 2) | 27.7 nM | 115 nM | 167 nM | – | – | –
30 | AGCAAAAUAAGCAAGGAUAUGUAAUUUGGCACAUGAGGAUCACCCAUGUCAAUCCAUUUUUUUGAACAGAAGGUGCAUUUUUUUU [ak first solve] (puzzle: Same State 2) | – | – | – | – | 36.4 nM | –
31 | AGCAUACAUGAGGAUCACCCAUGUCAACGUAGUCGAGGAUAUGGGCAGCCGUGAGGCGAACCAGAAGGCGAAUUGA [Mat - Same State 1 - Mod of JL - D3] (puzzle: Same State 1) | – | – | – | 23.7 nM | 34.6 nM | 38.9 nM
